The target in the assay is SUMO1(15-55) (human). As to the kind of experiment: MST (FIG. 11b).
SUMO1(15-55) (human), sequence (peptide, as listed by the source limits assumed): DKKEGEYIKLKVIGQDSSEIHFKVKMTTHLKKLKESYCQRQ

With αsyn(33-58) (peptide), the binding ability relative to the sole β1, β2-strand peptides (fold of the sole β1, β2-strand peptides) came to 0.037.

The values are drawn from US20220194997A1, “SUMO PEPTIDES FOR TREATING NEURODEGENERATIVE DISEASES” (The Chinese University of Hong Kong, priority 2019, published 2022).
